B1: 4G11 antibody (antibody, V domains shown)
VH: EVQLQQSGPELVKTGDSVKISCKASGYSFTGYYMHWVKQSHGKSLEWIGYISCYNGATSYSQKFKGKATFTVDTSSSTAYMQFNSLTSEDSAVYYCARWDRDWFAYWGQGTLVTVSA
VL: DIVMTQSHKFMSTSVGDRVSITCKASQDVGIAVAWYQQKPGQSPKLLIYWASTRHTGVPDRFTGSGSGTDFTLTISNVQSEDLADYFCQQYSSYPFTFGSGTKLEIK
notes: Mouse hybridoma monoclonal antibody, detected with anti-mouse IgG
B2: 5A9 antibody (antibody, V domains shown)
VH: EVQLEESGPAVIKPSQSLSLTCIVSGFSITSSSYCWHWIRQPPGKGLEWMGRICYEGSIYYSPSIKSRFTISRDTSLNKFFIQLSSVTNEDTAMYYCSRENRLLKDAMDYWGQGTSVTVSS
VL: DIVMTQSPSSLAVSAGEKVTMSCKSSQSLLSSRTRKNYLAWYQQKPGQSPKLLIYWASTRESGVPDRFTGSGSGTDFTLTISSVQAEDLAVYYCKQSYNLRTFGGGTKLEIK
notes: as for B1
B3: 9E11 antibody (antibody, V domains shown)
VH: QVQLKESGPGLVKPSQSLSLTCTVTGYSITSDYAWNWIRQFPGNKLEWMGYISYSGSTRYNPSLKSRISITRDTSKNQFFLQLNSVTTEDTATYYCARGAAGFAYWGQGTLVTVSA
VL: DIVMTQSPASQSASLGESVTITCLASQTIGTWLAWYQQKPGKSPQLLIYAATSLADGVPSRFSGSGSGTEFSFKISSLQAEDFVSYYCQQLYSTPWTFGGGTKLEIK
notes: as for B1
B4: 7C3 antibody (antibody, V domains shown)
VH: EVQLQQSGAELMRPGASVKISCKATGYTFSAYWIEWVKQRPGHGLEWIGEILPGSGSTKYNEKFKGKATFTADTSSNTAYMQLSSLTSEDSAVYYCARGDYYAMDYWGQGTSVTVSS
VL: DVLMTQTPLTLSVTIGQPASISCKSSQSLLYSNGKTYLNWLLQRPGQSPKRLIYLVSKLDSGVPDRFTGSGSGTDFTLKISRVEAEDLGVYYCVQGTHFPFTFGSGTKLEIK
notes: as for B1
B5: 9E8 antibody (antibody, V domains shown)
VH: EVQLQQSGPELVKPGASMKISCKASGYSFTGYTMNWVKQSHGKNLEWIGLINPYNGGTSYNQKFKGKATLTVDKSSSTAYMELLSLTSEDSAVYYCARVGGSSWYFDVWGAGTTVTVSS
VL: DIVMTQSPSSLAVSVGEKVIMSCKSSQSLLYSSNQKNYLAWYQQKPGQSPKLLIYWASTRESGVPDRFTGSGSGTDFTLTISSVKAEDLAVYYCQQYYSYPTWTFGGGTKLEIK
notes: Mouse hybridoma monoclonal antibody, detected with anti-mouse IgG; The printed VH and VL are identical to those of 3A8
B6: 3A8 antibody (antibody, V domains shown)
VH: B5 VH
VL: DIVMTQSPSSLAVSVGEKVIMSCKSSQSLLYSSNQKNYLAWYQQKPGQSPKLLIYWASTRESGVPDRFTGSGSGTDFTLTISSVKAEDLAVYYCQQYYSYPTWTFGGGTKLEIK
notes: Mouse hybridoma monoclonal antibody; Tested as hybridoma culture supernatant in ELISA and at 1 ug in flow cytometry, detected with anti-mouse IgG; The printed VH and VL are identical to those of 9E8

What follows are binders tested against T1, mesothelin on NCI-H2052 mesothelioma cells overexpressing mesothelin (UniProt Q13421 296-598) (assay: flow cytometry on NCI-H2052 cells, 1 ug antibody, PE goat anti-mouse IgG secondary).
T1 construct: whole, on cells; NCI-H2052 is a human cell line and the positive control is anti-human mesothelin; also called H2052 cells; cells expressing mesothelin
T1 sequence (Q13421 other isoform, or with tags, fused parts or gaps limits assumed): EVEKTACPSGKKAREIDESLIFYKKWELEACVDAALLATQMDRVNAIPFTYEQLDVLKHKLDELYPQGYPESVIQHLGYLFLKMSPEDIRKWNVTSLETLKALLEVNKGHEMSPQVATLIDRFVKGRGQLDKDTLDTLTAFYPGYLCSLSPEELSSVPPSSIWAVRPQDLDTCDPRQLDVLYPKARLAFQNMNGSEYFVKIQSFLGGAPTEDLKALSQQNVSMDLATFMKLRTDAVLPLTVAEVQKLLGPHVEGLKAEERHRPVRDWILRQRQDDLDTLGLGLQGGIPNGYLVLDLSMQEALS

Row | Binder | Mean | Median
1 | B1 | 1260 | 1120
2 | B2 | 63.2 | 58.5
3 | B3 | 81.4 | 69.1
4 | B4 | 528 | 444
5 | B5 | 77.7 | 56.2
6 | B6 | 861 | 704

What follows are binders tested against T2, mesothelin protein (Acrobiosystems, cat #MSN-H5223) (UniProt Q13421 296-580) (assay: ELISA, mesothelin peptide coated 100 ng/well, 100 ul hybridoma culture, anti-mIgG-HRP).
T2 construct: The catalogue number is printed only for the immunogen; also called mesothelin peptide; MSLN
T2 sequence (Q13421 other isoform, or with tags, fused parts or gaps limits assumed): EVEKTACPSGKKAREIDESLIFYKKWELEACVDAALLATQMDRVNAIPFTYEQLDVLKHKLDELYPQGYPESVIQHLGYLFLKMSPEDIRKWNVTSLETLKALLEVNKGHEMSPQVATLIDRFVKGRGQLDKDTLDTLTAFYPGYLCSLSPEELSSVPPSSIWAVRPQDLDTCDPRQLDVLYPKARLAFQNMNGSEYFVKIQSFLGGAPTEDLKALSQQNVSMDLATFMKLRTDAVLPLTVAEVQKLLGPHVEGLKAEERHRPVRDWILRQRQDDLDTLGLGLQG
Procedure: First, in order to encode the mesothelin peptide, mesothelin peptide was dispensed into a 96-well plate at an amount of 100 ng/well and reacted overnight at 4° C. Then, after treatment with 1×PBST containing 3% BSA, it was blocked for 30 minutes at room temperature. […] The secondary antibody (anti-HRP, 1:10,000) was treated and reacted at room temperature for 30 minutes, washed three times with 1×PBST, and then treated with TMB for color development and reacted at room temperature for 5 minutes. Finally, the reaction was terminated by treatment with a stop solution of 1N H₂SO₄, and then the absorbance was measured at 450 nm.

Row | Binder | OD 450 measurements [OD 450]
7 | B1 | 1.35
8 | B2 | 1.49
9 | B3 | 1.64
10 | B4 | 1.52
11 | B5 | 0.758
12 | B6 | 1.27

— patent US20250129178A1 (INNOBATION BIO, published 2025)
